Positions of bridges follow the written chain, without caps; N, C: chain ends. Non-standard residues stand in square brackets, D forms with d. Phe(4-tBu) = CC(C)(C)c1ccc(C[C@H](N)C(=O)O)cc1; Phe(4-Br) = N[C@@H](Cc1ccc(Br)cc1)C(=O)O; Phe(4-Cl) = N[C@@H](Cc1ccc(Cl)cc1)C(=O)O; Phe(4-F) = N[C@@H](Cc1ccc(F)cc1)C(=O)O; 3Pal = N[C@@H](Cc1cccnc1)C(=O)O; 4Pal = N[C@@H](Cc1ccncc1)C(=O)O; 3Thi = N[C@@H](Cc1ccsc1)C(=O)O; NMeNle = CCCC[C@H](NC)C(=O)O; dNle = CCCC[C@@H](N)C(=O)O; NMeA = CN[C@@H](C)C(=O)O; Sar = CNCC(=O)O
B1: Compound No. 70 (peptide)
peptide: {CH2CO}-F[NMeA]NPHL[Sar]WSW[dNle][NMeNle]RCG-NH2
modifications: thioether N-14
SMILES: CCCC[C@H]1NC(=O)[C@H](Cc2c[nH]c3ccccc23)NC(=O)[C@H](CO)NC(=O)[C@H](Cc2c[nH]c3ccccc23)NC(=O)CN(C)C(=O)[C@H](CC(C)C)NC(=O)[C@H](Cc2c[nH]cn2)NC(=O)[C@@H]2CCCN2C(=O)[C@H](CC(N)=O)NC(=O)[C@H](C)N(C)C(=O)[C@H](Cc2ccccc2)NC(=O)CSC[C@@H](C(=O)NCC(N)=O)NC(=O)[C@H](CCCNC(=N)N)NC(=O)[C@H](CCCC)N(C)C1=O
notes: macrocyclic peptide cyclized via the ClAc moiety with the downstream cysteine
B2: Compound No. 51 (peptide)
peptide: {CH2CO}-F[NMeA]NPHD[Sar]WSW[NMeNle][NMeNle]RCG-NH2
modifications: thioether N-14
SMILES: CCCC[C@H]1C(=O)N(C)[C@@H](CCCC)C(=O)N[C@@H](CCCNC(=N)N)C(=O)N[C@H](C(=O)NCC(N)=O)CSCC(=O)N[C@@H](Cc2ccccc2)C(=O)N(C)[C@@H](C)C(=O)N[C@@H](CC(N)=O)C(=O)N2CCC[C@H]2C(=O)N[C@@H](Cc2c[nH]cn2)C(=O)N[C@@H](CC(=O)O)C(=O)N(C)CC(=O)N[C@@H](Cc2c[nH]c3ccccc23)C(=O)N[C@@H](CO)C(=O)N[C@@H](Cc2c[nH]c3ccccc23)C(=O)N1C
notes: as for B1
B3: Compound No. 53 (peptide)
peptide: {CH2CO}-F[NMeA]NPHLHWSW[NMeNle][NMeNle]RCG-NH2
modifications: thioether N-14
SMILES: CCCC[C@H]1C(=O)N(C)[C@@H](CCCC)C(=O)N[C@@H](CCCNC(=N)N)C(=O)N[C@H](C(=O)NCC(N)=O)CSCC(=O)N[C@@H](Cc2ccccc2)C(=O)N(C)[C@@H](C)C(=O)N[C@@H](CC(N)=O)C(=O)N2CCC[C@H]2C(=O)N[C@@H](Cc2c[nH]cn2)C(=O)N[C@@H](CC(C)C)C(=O)N[C@@H](Cc2c[nH]cn2)C(=O)N[C@@H](Cc2c[nH]c3ccccc23)C(=O)N[C@@H](CO)C(=O)N[C@@H](Cc2c[nH]c3ccccc23)C(=O)N1C
notes: as for B1
B4: Compound No. 54 (peptide)
peptide: {CH2CO}-F[NMeA]NPHLRWSW[NMeNle][NMeNle]RCG-NH2
modifications: thioether N-14
SMILES: CCCC[C@H]1C(=O)N(C)[C@@H](CCCC)C(=O)N[C@@H](CCCNC(=N)N)C(=O)N[C@H](C(=O)NCC(N)=O)CSCC(=O)N[C@@H](Cc2ccccc2)C(=O)N(C)[C@@H](C)C(=O)N[C@@H](CC(N)=O)C(=O)N2CCC[C@H]2C(=O)N[C@@H](Cc2c[nH]cn2)C(=O)N[C@@H](CC(C)C)C(=O)N[C@@H](CCCNC(=N)N)C(=O)N[C@@H](Cc2c[nH]c3ccccc23)C(=O)N[C@@H](CO)C(=O)N[C@@H](Cc2c[nH]c3ccccc23)C(=O)N1C
notes: as for B1
B5: Compound No. 55 (peptide)
peptide: {CH2CO}-F[NMeA]NPHLPWSW[NMeNle][NMeNle]RCG-NH2
modifications: thioether N-14
SMILES: CCCC[C@H]1C(=O)N(C)[C@@H](CCCC)C(=O)N[C@@H](CCCNC(=N)N)C(=O)N[C@H](C(=O)NCC(N)=O)CSCC(=O)N[C@@H](Cc2ccccc2)C(=O)N(C)[C@@H](C)C(=O)N[C@@H](CC(N)=O)C(=O)N2CCC[C@H]2C(=O)N[C@@H](Cc2c[nH]cn2)C(=O)N[C@@H](CC(C)C)C(=O)N2CCC[C@H]2C(=O)N[C@@H](Cc2c[nH]c3ccccc23)C(=O)N[C@@H](CO)C(=O)N[C@@H](Cc2c[nH]c3ccccc23)C(=O)N1C
notes: as for B1
B6: Compound No. 32 (peptide)
peptide: {CH2CO}-[Phe(4-F)][NMeA]NPHL[Sar]WSW[NMeNle][NMeNle]RCG-NH2
modifications: thioether N-14
SMILES: CCCC[C@H]1C(=O)N(C)[C@@H](CCCC)C(=O)N[C@@H](CCCNC(=N)N)C(=O)N[C@H](C(=O)NCC(N)=O)CSCC(=O)N[C@@H](Cc2ccc(F)cc2)C(=O)N(C)[C@@H](C)C(=O)N[C@@H](CC(N)=O)C(=O)N2CCC[C@H]2C(=O)N[C@@H](Cc2c[nH]cn2)C(=O)N[C@@H](CC(C)C)C(=O)N(C)CC(=O)N[C@@H](Cc2c[nH]c3ccccc23)C(=O)N[C@@H](CO)C(=O)N[C@@H](Cc2c[nH]c3ccccc23)C(=O)N1C
notes: macrocyclic peptide, Formula I series; also called Compound 32
B7: Compound No. 33 (peptide)
peptide: {CH2CO}-[Phe(4-Cl)][NMeA]NPHL[Sar]WSW[NMeNle][NMeNle]RCG-NH2
modifications: thioether N-14
SMILES: CCCC[C@H]1C(=O)N(C)[C@@H](CCCC)C(=O)N[C@@H](CCCNC(=N)N)C(=O)N[C@H](C(=O)NCC(N)=O)CSCC(=O)N[C@@H](Cc2ccc(Cl)cc2)C(=O)N(C)[C@@H](C)C(=O)N[C@@H](CC(N)=O)C(=O)N2CCC[C@H]2C(=O)N[C@@H](Cc2c[nH]cn2)C(=O)N[C@@H](CC(C)C)C(=O)N(C)CC(=O)N[C@@H](Cc2c[nH]c3ccccc23)C(=O)N[C@@H](CO)C(=O)N[C@@H](Cc2c[nH]c3ccccc23)C(=O)N1C
notes: macrocyclic peptide, Formula I series; also called Compound 33
B8: Compound No. 34 (peptide)
peptide: {CH2CO}-[Phe(4-Br)][NMeA]NPHL[Sar]WSW[NMeNle][NMeNle]RCG-NH2
modifications: thioether N-14
SMILES: CCCC[C@H]1C(=O)N(C)[C@@H](CCCC)C(=O)N[C@@H](CCCNC(=N)N)C(=O)N[C@H](C(=O)NCC(N)=O)CSCC(=O)N[C@@H](Cc2ccc(Br)cc2)C(=O)N(C)[C@@H](C)C(=O)N[C@@H](CC(N)=O)C(=O)N2CCC[C@H]2C(=O)N[C@@H](Cc2c[nH]cn2)C(=O)N[C@@H](CC(C)C)C(=O)N(C)CC(=O)N[C@@H](Cc2c[nH]c3ccccc23)C(=O)N[C@@H](CO)C(=O)N[C@@H](Cc2c[nH]c3ccccc23)C(=O)N1C
notes: macrocyclic peptide, Formula I series; also called Compound 34
B9: Compound No. 37 (peptide)
peptide: {CH2CO}-[Phe(4-tBu)][NMeA]NPHL[Sar]WSW[NMeNle][NMeNle]RCG-NH2
modifications: thioether N-14
SMILES: CCCC[C@H]1C(=O)N(C)[C@@H](CCCC)C(=O)N[C@@H](CCCNC(=N)N)C(=O)N[C@H](C(=O)NCC(N)=O)CSCC(=O)N[C@@H](Cc2ccc(C(C)(C)C)cc2)C(=O)N(C)[C@@H](C)C(=O)N[C@@H](CC(N)=O)C(=O)N2CCC[C@H]2C(=O)N[C@@H](Cc2c[nH]cn2)C(=O)N[C@@H](CC(C)C)C(=O)N(C)CC(=O)N[C@@H](Cc2c[nH]c3ccccc23)C(=O)N[C@@H](CO)C(=O)N[C@@H](Cc2c[nH]c3ccccc23)C(=O)N1C
notes: macrocyclic peptide, Formula I series; also called Compound 37
B10: Compound No. 38 (peptide)
peptide: {CH2CO}-[3Pal][NMeA]NPHL[Sar]WSW[NMeNle][NMeNle]RCG-NH2
modifications: thioether N-14
SMILES: CCCC[C@H]1C(=O)N(C)[C@@H](CCCC)C(=O)N[C@@H](CCCNC(=N)N)C(=O)N[C@H](C(=O)NCC(N)=O)CSCC(=O)N[C@@H](Cc2cccnc2)C(=O)N(C)[C@@H](C)C(=O)N[C@@H](CC(N)=O)C(=O)N2CCC[C@H]2C(=O)N[C@@H](Cc2c[nH]cn2)C(=O)N[C@@H](CC(C)C)C(=O)N(C)CC(=O)N[C@@H](Cc2c[nH]c3ccccc23)C(=O)N[C@@H](CO)C(=O)N[C@@H](Cc2c[nH]c3ccccc23)C(=O)N1C
notes: macrocyclic peptide, Formula I series; also called Compound 38
B11: Compound No. 39 (peptide)
peptide: {CH2CO}-[4Pal][NMeA]NPHL[Sar]WSW[NMeNle][NMeNle]RCG-NH2
modifications: thioether N-14
SMILES: CCCC[C@H]1C(=O)N(C)[C@@H](CCCC)C(=O)N[C@@H](CCCNC(=N)N)C(=O)N[C@H](C(=O)NCC(N)=O)CSCC(=O)N[C@@H](Cc2ccncc2)C(=O)N(C)[C@@H](C)C(=O)N[C@@H](CC(N)=O)C(=O)N2CCC[C@H]2C(=O)N[C@@H](Cc2c[nH]cn2)C(=O)N[C@@H](CC(C)C)C(=O)N(C)CC(=O)N[C@@H](Cc2c[nH]c3ccccc23)C(=O)N[C@@H](CO)C(=O)N[C@@H](Cc2c[nH]c3ccccc23)C(=O)N1C
notes: macrocyclic peptide, Formula I series; also called Compound 39
B12: Compound No. 40 (peptide)
peptide: {CH2CO}-[3Thi][NMeA]NPHL[Sar]WSW[NMeNle][NMeNle]RCG-NH2
modifications: thioether N-14
SMILES: CCCC[C@H]1C(=O)N(C)[C@@H](CCCC)C(=O)N[C@@H](CCCNC(=N)N)C(=O)N[C@H](C(=O)NCC(N)=O)CSCC(=O)N[C@@H](Cc2ccsc2)C(=O)N(C)[C@@H](C)C(=O)N[C@@H](CC(N)=O)C(=O)N2CCC[C@H]2C(=O)N[C@@H](Cc2c[nH]cn2)C(=O)N[C@@H](CC(C)C)C(=O)N(C)CC(=O)N[C@@H](Cc2c[nH]c3ccccc23)C(=O)N[C@@H](CO)C(=O)N[C@@H](Cc2c[nH]c3ccccc23)C(=O)N1C
notes: macrocyclic peptide, Formula I series; also called Compound 40
B13: Compound No. 52 (peptide)
peptide: FANPHLXWSWXXRCG
modifications: ClAc on N-terminus cyclized as thioether with Cys14; mAla (N-methyl-Ala) at 2; Dab (2,4-diaminobutyric acid, written X) at 7; mNle (N-methyl-norleucine, written X) at 11 and 12; C-terminal NH2
notes: macrocyclic peptide, Formula I series; also called Compound 52
B14: Compound No. 69 (peptide)
peptide: FANPHLGWSWFXRCG
HELM: PEPTIDE1{[O=C(C[*:3])[*:2]].F.[meA].N.P.H.L.[Sar].W.S.W.F.[CCCC[C@@H](C(=O)[*:2])N(C)[*:1]].R.C.G.[am]}$PEPTIDE1,PEPTIDE1,1:R3-15:R3$$$V2.0
SMILES: CCCC[C@H]1C(=O)N[C@@H](CCCNC(=N)N)C(=O)N[C@H](C(=O)NCC(N)=O)CSCC(=O)N[C@@H](Cc2ccccc2)C(=O)N(C)[C@@H](C)C(=O)N[C@@H](CC(N)=O)C(=O)N2CCC[C@H]2C(=O)N[C@@H](Cc2c[nH]cn2)C(=O)N[C@@H](CC(C)C)C(=O)N(C)CC(=O)N[C@@H](Cc2c[nH]c3ccccc23)C(=O)N[C@@H](CO)C(=O)N[C@@H](Cc2c[nH]c3ccccc23)C(=O)N[C@@H](Cc2ccccc2)C(=O)N1C
notes: macrocyclic peptide, Formula I series; Phe at 11 is not N-methylated; also called Compound 69

Assays:
[1] = biological target: T1, hPDL1(19-239)-TVMV-His (human, UniProt Q9NZQ7 19-239); experiment: HTRF competition, PD-1-Ig (20 nM) binding to human PD-L1-His (10 nM)
T1 construct: The construct name says 19-239, the running text says amino acids 18-239; Expressed in HEK293T cells; also called PD-L1-His; PD-L1-TVMV-His
T1 sequence (Q9NZQ7 other isoform, or with tags, fused parts or gaps limits assumed): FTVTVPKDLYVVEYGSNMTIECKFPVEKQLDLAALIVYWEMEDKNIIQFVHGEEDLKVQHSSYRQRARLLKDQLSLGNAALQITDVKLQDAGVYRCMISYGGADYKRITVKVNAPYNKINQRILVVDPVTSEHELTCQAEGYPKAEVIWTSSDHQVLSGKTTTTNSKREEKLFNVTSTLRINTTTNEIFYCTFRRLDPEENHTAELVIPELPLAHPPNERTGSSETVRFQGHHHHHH
Procedure: All binding studies were performed in an HTRF assay buffer consisting of dPBS supplemented with 0.1% (w/v) bovine serum albumin and 0.05% (v/v) Tween-20. […] PD-L1 fusion proteins from either human, cynomologous macaques, or mouse were used. HTRF detection was achieved using europium crypate-labeled anti-Ig monoclonal antibody (1 nM final) and allophycocyanin (APC) labeled anti-His monoclonal antibody (20 nM final). Antibodies were diluted in HTRF detection buffer and 5 μl was dispensed on top of binding reaction. The reaction was allowed to equilibrate for 30 minutes and signal (665 nm/620 nm ratio) was obtained using an EnVision fluorometer. […]
HTRF Experiments were performed essentially as outlined supra. Variant macrocyclic peptides were created as outlined herein.

[2] = biological target: T2, human PD-L1 (human, UniProt Q9NZQ7 19-239, limits assumed); experiment: cell binding assay, inhibition of Hu PD-L1/PD-1 binding
T2 construct: also called Hu PD-L1; hPD-L1
T2 sequence (Q9NZQ7 19-239 limits assumed): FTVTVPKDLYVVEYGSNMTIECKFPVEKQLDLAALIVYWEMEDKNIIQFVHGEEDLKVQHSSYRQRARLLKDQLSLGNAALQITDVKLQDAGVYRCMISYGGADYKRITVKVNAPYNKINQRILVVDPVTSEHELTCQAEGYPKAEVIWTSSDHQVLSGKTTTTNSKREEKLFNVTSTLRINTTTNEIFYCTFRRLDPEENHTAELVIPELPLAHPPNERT

Binder	IC50 [1]	IC50 [2]
B1	8680 nM	–
B2	23 nM	–
B3	34 nM	–
B4	26 nM	–
B5	4 nM	–
B6	–	25 nM
B7	–	7 nM
B8	–	37 nM
B9	–	2520 nM
B10	–	368 nM
B11	–	283 nM
B12	–	20 nM
B13	–	108 nM
B14	–	351 nM

— patent US20140294898A1 (published 2014)
